Experiment [1] deals with deglycosylated human nAChR α9-ECD (human) (UniProt Q9UGM1). Briefly: radioligand binding.
Experiment [2] has as its target glycosylated human nAChR α9-ECD (human) (UniProt Q9UGM1). Briefly: radioligand binding.

With “α-conotoxin RgIA, globular isomer, C-terminally amidated (from UniProt P0C1D0 20-32) (peptide)”, the inhibition constant Ki (as a rule, the dissociation constant of the complex between target and ligand, obtained from inhibition or displacement) in experiment [1] worked out at 2.7 µM; in experiment [2], 13.3 µM.

These data come from article PMC6504684 (Frontiers in Pharmacology, 2019).
